Experiment [1] has as its target third BIR domain of BIRC2 (BIRC2_(BIR3)), GST cleaved (human) (UniProt Q13490). In words: other fluorescence titration.
The target of experiment [2] is C-terminal fluorescein-labeled H3 peptide (1–12) (UniProt P68431). The experiment can be described thus: MST.

Chain of third BIR domain of BIRC2 (BIRC2_(BIR3)), GST cleaved (human) (Q13490 261-346): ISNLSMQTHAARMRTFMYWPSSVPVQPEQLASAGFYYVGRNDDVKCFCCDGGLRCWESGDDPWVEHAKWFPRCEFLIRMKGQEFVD

Usually Kd stands for a measure of binding affinity in units of concentration. Lower therefore signals a tighter complex. The substance “H3_(1–12) peptide (residues 1–12 of H3) (from UniProt P68431 2-13)” registered a Kd in experiment [1] of 0.4 µM.
For “third BIR domain of BIRC2 (BIRC2_(BIR3)), GST cleaved (from UniProt Q13490 261-346) (domain or fragment)”, the dissociation constant Kd in experiment [2] was determined as 0.34 µM.
